Source: PMC8982406

T1: ZC4H2 (wild type; mapping and mutation co-IPs), Q9NQZ6
T1 chain: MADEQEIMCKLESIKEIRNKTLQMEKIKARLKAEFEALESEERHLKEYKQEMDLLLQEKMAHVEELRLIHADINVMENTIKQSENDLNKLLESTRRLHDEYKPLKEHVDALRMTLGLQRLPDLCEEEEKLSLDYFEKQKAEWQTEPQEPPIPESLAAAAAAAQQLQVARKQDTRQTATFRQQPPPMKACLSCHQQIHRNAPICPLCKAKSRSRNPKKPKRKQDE


Biological target: T1, ZC4H2 (wild type; mapping and mutation …)
Experiment: co-IP (IP: FLAG, IB: myc), blot quantification
Conditions: chain shown with the change; hRLIM-myc + ZC4H2-FLAG, MG132 +, HEK293 cells; parent: 1.00

Binder	ratio to parent
full-length RLIM protein (wild type; mapping and mutation co-IPs), Q9NVW2 P587R (protein) MENSDSNDKGSGDQSAAQRRSQMDRLDREEAFYQFVNNLSEEDYRLMRDNNLLGTPGESTEEELLRRLQQIKEGPPPQNSDENRGGDSSDDVSNGDSIIDWLNSVRQTGNTTRSGQRGNQSWRAVSRTNPNSGDFRFSLEINVNRNNGSQNSENENEPSARRSSGENVENNSQRQVENPRSESTSARPSRSERNSTEALTEVPPTRGQRRARSRSPDHRRTRARAERSRSPLHPMSEIPRRSHHSISSQTFEHPLVNETEGSSRTRHHVTLRQQISGPELLSRGLFAASGTRNASQGAGSSDTAASGESTGSGQRPPTIVLDLQVRRVRPGEYRQRDSIASRTRSRSQTPNNTVTYESERGGFRRTFSRSERAGVRTYVSTIRIPIRRILNTGLSETTSVAIQTMLRQIMTGFGELSYFMYSDSDSEPTGSVSNRNMERAESRSGRGGSGGGSSSGSSSSSSSSSSSSSSSSSSSSPSSSSGGESSETSSDLFEGSNEGSSSSGSSGARREGRHRAPVTFDESGSLPFLSLAQFFLLNEDDDDQPRGLTKEQIDNLAMRSFGENDALKTCSVCITEYTEGNKLRKLRCSHEYHVHCIDRWLSENSTCPICRRAVLASGNRESVV	0.72
full-length RLIM protein (wild type; mapping and mutation co-IPs), Q9NVW2 D598N (protein) MENSDSNDKGSGDQSAAQRRSQMDRLDREEAFYQFVNNLSEEDYRLMRDNNLLGTPGESTEEELLRRLQQIKEGPPPQNSDENRGGDSSDDVSNGDSIIDWLNSVRQTGNTTRSGQRGNQSWRAVSRTNPNSGDFRFSLEINVNRNNGSQNSENENEPSARRSSGENVENNSQRQVENPRSESTSARPSRSERNSTEALTEVPPTRGQRRARSRSPDHRRTRARAERSRSPLHPMSEIPRRSHHSISSQTFEHPLVNETEGSSRTRHHVTLRQQISGPELLSRGLFAASGTRNASQGAGSSDTAASGESTGSGQRPPTIVLDLQVRRVRPGEYRQRDSIASRTRSRSQTPNNTVTYESERGGFRRTFSRSERAGVRTYVSTIRIPIRRILNTGLSETTSVAIQTMLRQIMTGFGELSYFMYSDSDSEPTGSVSNRNMERAESRSGRGGSGGGSSSGSSSSSSSSSSSSSSSSSSSSPSSSSGGESSETSSDLFEGSNEGSSSSGSSGARREGRHRAPVTFDESGSLPFLSLAQFFLLNEDDDDQPRGLTKEQIDNLAMRSFGENDALKTCSVCITEYTEGNKLRKLPCSHEYHVHCINRWLSENSTCPICRRAVLASGNRESVV	0.23
full-length RLIM protein (wild type; mapping and mutation co-IPs), Q9NVW2 P77L (protein) MENSDSNDKGSGDQSAAQRRSQMDRLDREEAFYQFVNNLSEEDYRLMRDNNLLGTPGESTEEELLRRLQQIKEGPPLQNSDENRGGDSSDDVSNGDSIIDWLNSVRQTGNTTRSGQRGNQSWRAVSRTNPNSGDFRFSLEINVNRNNGSQNSENENEPSARRSSGENVENNSQRQVENPRSESTSARPSRSERNSTEALTEVPPTRGQRRARSRSPDHRRTRARAERSRSPLHPMSEIPRRSHHSISSQTFEHPLVNETEGSSRTRHHVTLRQQISGPELLSRGLFAASGTRNASQGAGSSDTAASGESTGSGQRPPTIVLDLQVRRVRPGEYRQRDSIASRTRSRSQTPNNTVTYESERGGFRRTFSRSERAGVRTYVSTIRIPIRRILNTGLSETTSVAIQTMLRQIMTGFGELSYFMYSDSDSEPTGSVSNRNMERAESRSGRGGSGGGSSSGSSSSSSSSSSSSSSSSSSSSPSSSSGGESSETSSDLFEGSNEGSSSSGSSGARREGRHRAPVTFDESGSLPFLSLAQFFLLNEDDDDQPRGLTKEQIDNLAMRSFGENDALKTCSVCITEYTEGNKLRKLPCSHEYHVHCIDRWLSENSTCPICRRAVLASGNRESVV	0.95
full-length RLIM protein (wild type; mapping and mutation co-IPs), Q9NVW2 R365C (protein) MENSDSNDKGSGDQSAAQRRSQMDRLDREEAFYQFVNNLSEEDYRLMRDNNLLGTPGESTEEELLRRLQQIKEGPPPQNSDENRGGDSSDDVSNGDSIIDWLNSVRQTGNTTRSGQRGNQSWRAVSRTNPNSGDFRFSLEINVNRNNGSQNSENENEPSARRSSGENVENNSQRQVENPRSESTSARPSRSERNSTEALTEVPPTRGQRRARSRSPDHRRTRARAERSRSPLHPMSEIPRRSHHSISSQTFEHPLVNETEGSSRTRHHVTLRQQISGPELLSRGLFAASGTRNASQGAGSSDTAASGESTGSGQRPPTIVLDLQVRRVRPGEYRQRDSIASRTRSRSQTPNNTVTYESERGGFRCTFSRSERAGVRTYVSTIRIPIRRILNTGLSETTSVAIQTMLRQIMTGFGELSYFMYSDSDSEPTGSVSNRNMERAESRSGRGGSGGGSSSGSSSSSSSSSSSSSSSSSSSSPSSSSGGESSETSSDLFEGSNEGSSSSGSSGARREGRHRAPVTFDESGSLPFLSLAQFFLLNEDDDDQPRGLTKEQIDNLAMRSFGENDALKTCSVCITEYTEGNKLRKLPCSHEYHVHCIDRWLSENSTCPICRRAVLASGNRESVV	1.02

Now from value to binder:

ratio to parent	Binder
0.65	full-length RLIM protein (wild type; mapping and mutation co-IPs), Q9NVW2 R599C (protein) MENSDSNDKGSGDQSAAQRRSQMDRLDREEAFYQFVNNLSEEDYRLMRDNNLLGTPGESTEEELLRRLQQIKEGPPPQNSDENRGGDSSDDVSNGDSIIDWLNSVRQTGNTTRSGQRGNQSWRAVSRTNPNSGDFRFSLEINVNRNNGSQNSENENEPSARRSSGENVENNSQRQVENPRSESTSARPSRSERNSTEALTEVPPTRGQRRARSRSPDHRRTRARAERSRSPLHPMSEIPRRSHHSISSQTFEHPLVNETEGSSRTRHHVTLRQQISGPELLSRGLFAASGTRNASQGAGSSDTAASGESTGSGQRPPTIVLDLQVRRVRPGEYRQRDSIASRTRSRSQTPNNTVTYESERGGFRRTFSRSERAGVRTYVSTIRIPIRRILNTGLSETTSVAIQTMLRQIMTGFGELSYFMYSDSDSEPTGSVSNRNMERAESRSGRGGSGGGSSSGSSSSSSSSSSSSSSSSSSSSPSSSSGGESSETSSDLFEGSNEGSSSSGSSGARREGRHRAPVTFDESGSLPFLSLAQFFLLNEDDDDQPRGLTKEQIDNLAMRSFGENDALKTCSVCITEYTEGNKLRKLPCSHEYHVHCIDCWLSENSTCPICRRAVLASGNRESVV
0.18	full-length RLIM protein (wild type; mapping and mutation co-IPs), Q9NVW2 R387C (protein) MENSDSNDKGSGDQSAAQRRSQMDRLDREEAFYQFVNNLSEEDYRLMRDNNLLGTPGESTEEELLRRLQQIKEGPPPQNSDENRGGDSSDDVSNGDSIIDWLNSVRQTGNTTRSGQRGNQSWRAVSRTNPNSGDFRFSLEINVNRNNGSQNSENENEPSARRSSGENVENNSQRQVENPRSESTSARPSRSERNSTEALTEVPPTRGQRRARSRSPDHRRTRARAERSRSPLHPMSEIPRRSHHSISSQTFEHPLVNETEGSSRTRHHVTLRQQISGPELLSRGLFAASGTRNASQGAGSSDTAASGESTGSGQRPPTIVLDLQVRRVRPGEYRQRDSIASRTRSRSQTPNNTVTYESERGGFRRTFSRSERAGVRTYVSTIRIPICRILNTGLSETTSVAIQTMLRQIMTGFGELSYFMYSDSDSEPTGSVSNRNMERAESRSGRGGSGGGSSSGSSSSSSSSSSSSSSSSSSSSPSSSSGGESSETSSDLFEGSNEGSSSSGSSGARREGRHRAPVTFDESGSLPFLSLAQFFLLNEDDDDQPRGLTKEQIDNLAMRSFGENDALKTCSVCITEYTEGNKLRKLPCSHEYHVHCIDRWLSENSTCPICRRAVLASGNRESVV
0.17	full-length RLIM protein (wild type; mapping and mutation co-IPs), Q9NVW2 R611C (protein) MENSDSNDKGSGDQSAAQRRSQMDRLDREEAFYQFVNNLSEEDYRLMRDNNLLGTPGESTEEELLRRLQQIKEGPPPQNSDENRGGDSSDDVSNGDSIIDWLNSVRQTGNTTRSGQRGNQSWRAVSRTNPNSGDFRFSLEINVNRNNGSQNSENENEPSARRSSGENVENNSQRQVENPRSESTSARPSRSERNSTEALTEVPPTRGQRRARSRSPDHRRTRARAERSRSPLHPMSEIPRRSHHSISSQTFEHPLVNETEGSSRTRHHVTLRQQISGPELLSRGLFAASGTRNASQGAGSSDTAASGESTGSGQRPPTIVLDLQVRRVRPGEYRQRDSIASRTRSRSQTPNNTVTYESERGGFRRTFSRSERAGVRTYVSTIRIPIRRILNTGLSETTSVAIQTMLRQIMTGFGELSYFMYSDSDSEPTGSVSNRNMERAESRSGRGGSGGGSSSGSSSSSSSSSSSSSSSSSSSSPSSSSGGESSETSSDLFEGSNEGSSSSGSSGARREGRHRAPVTFDESGSLPFLSLAQFFLLNEDDDDQPRGLTKEQIDNLAMRSFGENDALKTCSVCITEYTEGNKLRKLPCSHEYHVHCIDRWLSENSTCPICCRAVLASGNRESVV
0.91	full-length RLIM protein (wild type; mapping and mutation co-IPs), Q9NVW2 Y356C (protein) MENSDSNDKGSGDQSAAQRRSQMDRLDREEAFYQFVNNLSEEDYRLMRDNNLLGTPGESTEEELLRRLQQIKEGPPPQNSDENRGGDSSDDVSNGDSIIDWLNSVRQTGNTTRSGQRGNQSWRAVSRTNPNSGDFRFSLEINVNRNNGSQNSENENEPSARRSSGENVENNSQRQVENPRSESTSARPSRSERNSTEALTEVPPTRGQRRARSRSPDHRRTRARAERSRSPLHPMSEIPRRSHHSISSQTFEHPLVNETEGSSRTRHHVTLRQQISGPELLSRGLFAASGTRNASQGAGSSDTAASGESTGSGQRPPTIVLDLQVRRVRPGEYRQRDSIASRTRSRSQTPNNTVTCESERGGFRRTFSRSERAGVRTYVSTIRIPIRRILNTGLSETTSVAIQTMLRQIMTGFGELSYFMYSDSDSEPTGSVSNRNMERAESRSGRGGSGGGSSSGSSSSSSSSSSSSSSSSSSSSPSSSSGGESSETSSDLFEGSNEGSSSSGSSGARREGRHRAPVTFDESGSLPFLSLAQFFLLNEDDDDQPRGLTKEQIDNLAMRSFGENDALKTCSVCITEYTEGNKLRKLPCSHEYHVHCIDRWLSENSTCPICRRAVLASGNRESVV
